Ten molecules from publication PMC3317499, “Structural Insights into TIR Domain Specificity of the Bridging Adaptor Mal in TLR4 Signaling” (PLoS ONE, 2012) can be followed below.

Numbering of substitutions follows the chain as printed. In names and notes the source's numbering stands.

Data set [1] addresses T1, GST-MyD88-TIR (TIR domain of human MyD88, residues 148-296, GST fusion) (human, UniProt Q99836 148-296).
T1 construct: Myeloid differentiation factor 88 (MyD88), human, TIR domain residues 148-296; pGEX-6P-1 is a bacterial vector; source: E. coli (pGEX-6P-1), purified (glutathione Sepharose 4B, desalting)
Nature of the data set: pull-down; GST fusion protein and Myc-Mal-TIR mixed with glutathione Sepharose 4B beads, 4°C, 3 hours; washed four times with 20 mM potassium phosphate pH 6.4, 50 mM KCl, 0.1 mM EDTA, 10 mM DTT, 0.5 mM PMSF, 0.5% Triton X-100; SDS-PAGE and anti-Myc immunoblot. Particulars: both partners purified.

The target of data set [2] is T2, GST-TLR4-TIR (TIR domain of human TLR4, residues 670-839, GST fusion) (human, UniProt O00206 670-839).
T2 construct: Toll-like receptor 4 (TLR4), human, TIR domain residues 670-839; pGEX-6P-1 is a bacterial vector; source: E. coli (pGEX-6P-1), purified (glutathione Sepharose 4B, desalting)
T2 sequence (looked up): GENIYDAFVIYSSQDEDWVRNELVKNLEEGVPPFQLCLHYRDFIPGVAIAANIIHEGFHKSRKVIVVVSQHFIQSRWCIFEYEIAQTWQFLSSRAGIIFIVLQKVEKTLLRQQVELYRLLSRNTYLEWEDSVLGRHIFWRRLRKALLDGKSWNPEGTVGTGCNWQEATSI
The description is as above. Conditions: both partners purified.

Data set [3] concerns the target T3, GST-Mal-TIR (TIR domain of human Mal, residues 79-221, GST fusion) (human, UniProt P58753 79-221).
T3 construct: MyD88 adaptor-like protein (Mal, TIRAP), human, UniProtKB P58753, TIR domain residues 79-221; pGEX-6P-1 is a bacterial vector; also called wild type Mal-TIR purified as a GST fusion protein; source: E. coli (pGEX-6P-1), purified (glutathione Sepharose 4B, desalting)
Described as above. Conditions: both partners purified.

Data set [4] concerns the molecule itself. Put plainly: crystal structure; Mal-TIR 79-221, space group P4(3)2(1)2, one molecule per asymmetric unit; dimers by crystallographic packing; 100 mM CHES pH 9.5, 150-300 mM NaCl, 10-20% glycerol, 10 mM DTT; 2.4 Å.

T1 sequence (Q99836 148-296): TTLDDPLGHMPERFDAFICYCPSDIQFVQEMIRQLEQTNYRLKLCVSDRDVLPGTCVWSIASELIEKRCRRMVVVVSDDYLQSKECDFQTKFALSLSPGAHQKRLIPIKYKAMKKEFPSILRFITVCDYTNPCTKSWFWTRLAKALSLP

B1: Myc-Mal-TIR wild type (TIR domain of human MyD88 adaptor-like protein, residues 79-221, double-tagged with His6 and Myc) (domain or fragment, UniProt P58753 79-221, looked up)
chain: SSRWSKDYDVCVCHSEEDLVAAQDLVSYLEGSTASLRCFLQLRDATPGGAIVSELCQALSSSHCRVLLITPGFLQDPWCKYQMLQALTEAPGAEGCTIPLLSGLSRAAYPPELRFMYYVDGRGPDGGFRQVKEAVMRYLQTLS
notes: MyD88 adaptor-like protein (Mal, TIRAP), human, UniProtKB P58753, TIR domain residues 79-221; it replaced the S-tag, thioredoxin and the thrombin-cleavable segment of pET32a; also called wild-type Mal-TIR; TIRAP TIR domain; source: E. coli, purified (Ni-NTA, desalting)
Consider B1, for which the binding result in data set [1], in data set [2] and in data set [3] was “binds” each time.

B2: Mal-TIR (residues 79-221 of human Mal), crystallised form (domain or fragment, UniProt P58753 79-221, looked up)
chain: B1 chain
notes: MyD88 adaptor-like protein (Mal, TIRAP), human, UniProtKB P58753, residues 79-221; The structure has disulfide bonds C89-C134 and C142-C174 and a DTT linking Cys91 and Cys157; A selenomethionine form was used for phasing; also called wild-type Mal-TIR; TIR domain of the human Mal molecule; source: E. coli BL21 (DE3) codon plus, purified (Ni-NTA, PreScission digestion, anion exchange)
Regarding B2, the binding result in data set [4] is on record as “binds”.

B3: Myc-Mal-TIR D96N (domain or fragment, human, UniProt P58753 79-221, looked up)
chain: B1 chain with D18N
notes: Mal (TIRAP), human, UniProtKB P58753, TIR domain residues 79-221, natural variant D96N; source: E. coli, purified (Ni-NTA, desalting)
Regarding B3, the binding result in data set [1] was “binds”.

B4: Myc-Mal-TIR R192A (domain or fragment, human, UniProt P58753 79-221, looked up)
chain: B1 chain with R114A
notes: Mal (TIRAP), human, UniProtKB P58753, TIR domain residues 79-221; source: E. coli, purified (Ni-NTA, desalting)
As to B4, the binding result in data set [3] is reported as “binds”.

B5: Myc-Mal-TIR E108A (domain or fragment, human, UniProt P58753 79-221, looked up)
chain: B1 chain with E30A
notes: as for B4
As for B5, the binding result in data set [1] was “binds”.

B6: Myc-Mal-TIR D87A (domain or fragment, human, UniProt P58753 79-221, looked up)
chain: B1 chain with D9A
notes: as for B4
With B6, the binding result in data set [3] is recorded as “binds”.

B7: Myc-Mal-TIR L165A (domain or fragment, human, UniProt P58753 79-221, looked up)
chain: B1 chain with L87A
notes: as for B4
As to B7, the binding result in data set [1] was “binds”.

B8: Myc-Mal-TIR F117A (domain or fragment, human, UniProt P58753 79-221, looked up)
chain: B1 chain with F39A
notes: as for B4
For B8, in data set [1], the binding result is given as “binds”.

B9: Myc-Mal-TIR D96A (domain or fragment, human, UniProt P58753 79-221, looked up)
chain: B1 chain with D18A
notes: as for B4
In the case of B9, the binding result in data set [1] and in data set [2] was “binds” each time.

B10: Myc-Mal-TIR S180L (domain or fragment, human, UniProt P58753 79-221, looked up)
chain: B1 chain with S102L
notes: Mal (TIRAP), human, UniProtKB P58753, TIR domain residues 79-221, natural variant S180L; also called Mal S180L; source: E. coli, purified (Ni-NTA, desalting)
For the molecule B10, the binding result in data set [1] and in data set [2] was “binds” each time.
